Here are results for 7 molecules from patent publication US11180789B2, “Method for bioconversion of mogroside extracts into siamenoside I” (National Taiwan University, priority 2019, dated 2021).

The Vmax is the top rate of the reaction or transport when substrate is in excess. One may read the Km as the concentration of substrate that gives half-maximal velocity. Usually kcat stands for the maximal rate divided by the concentration of active sites. By kcat/Km is commonly meant the second-order rate constant that governs catalysis at low substrate concentration.

For series [1] the following is noted: relative to 5% sucrose in water; cited from earlier work.
Series [2] concerns the target T1, recombinant ScExg1 (rScExg1), Exg1p of Saccharomyces cerevisiae (Saccharomyces cerevisiae, UniProt P23776).
T1 sequence (P23776 41-448): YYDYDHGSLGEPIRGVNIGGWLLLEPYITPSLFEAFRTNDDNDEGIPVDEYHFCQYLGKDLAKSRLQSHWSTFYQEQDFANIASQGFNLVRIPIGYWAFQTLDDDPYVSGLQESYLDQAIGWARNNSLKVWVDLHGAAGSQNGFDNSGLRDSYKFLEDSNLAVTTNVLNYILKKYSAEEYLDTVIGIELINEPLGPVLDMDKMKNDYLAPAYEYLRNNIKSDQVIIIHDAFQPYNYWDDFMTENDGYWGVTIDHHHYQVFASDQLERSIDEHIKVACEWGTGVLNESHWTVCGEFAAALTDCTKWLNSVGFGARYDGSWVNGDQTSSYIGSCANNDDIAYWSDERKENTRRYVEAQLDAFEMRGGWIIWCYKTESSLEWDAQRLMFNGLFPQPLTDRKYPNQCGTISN
Nature of the series: Enzyme kinetics of recombinant ScExg1 on oNPG and pNPG substrates (β-glucosidase activity). As to conditions: pNP/oNP release at 405 nm. The format is biochemical. The method, then:
The optimal conditions for β-glucosidase activity were determined. The optimum pH was obtained by monitoring enzyme activity at a range of pH levels (from pH 3 to pH 9) in the reaction buffer. Incubation was carried out at 60° C. for 30 min. To analyze enzyme stability, the same buffer system and pH range were used, however, the reactions were performed at 4° C. for 1 h. The optimum temperature was determined in 20 mM acetate buffer at pH 5 in a range of temperatures from 20° C. to 90° C. For temperature stability analysis, β-glucosidase was extracted and activity was monitored following 1 h incubation in 20 mM acetate buffer, pH 5. […] The f-glucosidase activity was determined by measuring the levels of p-nitrophenol (pNP) or o-nitrophenol (oNP) released from pNPG or oNPG after the glucose was hydrolyzed by glucosidase. The released pNP or oNP was detected at a wavelength of 405 nm and calibrated with standard curves. […]
(§1) To evaluate the preferred pH, preferred temperature and hydrolyzing capability of rDbExg1, we used pNPG substrates and compared the results with ScExg1. rDbExg1 retained half of its activity over a pH range of 3.0 to 7.0 and was stable at pH 5.0-7.0. […] The Michaelis constant (Km) and maximum velocity (Vmax) of rDbExg1 and rScExg1 were also compared and calculated (Table 3). […]

Series [3] in a line: β-Glucosidase activity, pH and temperature optimum and stability of recombinant Exg1 proteins on pNPG. The series is classed as biochemical. As to the method:
(§2) The optimal conditions for β-glucosidase activity were determined. The optimum pH was obtained by monitoring enzyme activity at a range of pH levels (from pH 3 to pH 9) in the reaction buffer. Incubation was carried out at 60° C. for 30 min. To analyze enzyme stability, the same buffer system and pH range were used, however, the reactions were performed at 4° C. for 1 h. The optimum temperature was determined in 20 mM acetate buffer at pH 5 in a range of temperatures from 20° C. to 90° C. For temperature stability analysis, β-glucosidase was extracted and activity was monitored following 1 h incubation in 20 mM acetate buffer, pH 5. […] The enzyme and substrate mixture were incubated under optimum enzymatic reactions conditions of 60° C., pH 5. The f-glucosidase activity was determined by measuring the levels of p-nitrophenol (pNP) or o-nitrophenol (oNP) released from pNPG or oNPG after the glucose was hydrolyzed by glucosidase. The released pNP or oNP was detected at a wavelength of 405 nm and calibrated with standard curves. Mogroside conversion was stopped by the addition of one volume of pure methanol at specific time points. The converted products were then purified for HPLC-MS/MS analysis.

Substrate in series [4]: O=[N+]([O-])c1ccc(O[C@@H]2O[C@H](CO)[C@@H](O)[C@H](O)[C@H]2O)cc1
Nature of the series: Enzyme kinetics of recombinant ScExg1 on oNPG and pNPG substrates (β-glucosidase activity). As to conditions: other: rScExg1; pNP/oNP release at 405 nm. The format is biochemical, Saccharomyces cerevisiae. The method, then:
as §2
(§3) Because mogrosides are known to be hydrolyzed by Exg1p in S. cerevisiae (ScExg1), we hypothesized that an Exg1-like glucan-β-glucosidase in D. bruxellensis (DbExg1) might be responsible for the observed mogroside conversion. To test this hypothesis, DbExg1 was cloned with a galactose-induced promoter sequence and six-histidine tag (6×His) at the C-terminus of the gene. The plasmids were transformed and expressed in S. cerevisiae as previously described. […] The recombinant DbExg1 (termed rDbExg1) was purified by Ni^2+-affinity chromatography (data not shown).
(§4) To evaluate the preferred pH, preferred temperature and hydrolyzing capability of rDbExg1, we used pNPG substrates and compared the results with ScExg1. rDbExg1 retained half of its activity over a pH range of 3.0 to 7.0 and was stable at pH 5.0-7.0. The optimum pH was 5.0 in a sodium phosphate buffer system (FIG. 3C). […] The optimum temperature for rDbExg1 was 60° C. However, the enzyme only retained 40% of its activity after incubation at 60° C. for 30 min. […] (FIG. 3B). Both ScExg1 and rDbExg1 were stable at temperatures below 50° C. (FIGS. 3B and D). The Michaelis constant (Km) and maximum velocity (Vmax) of rDbExg1 and rScExg1 were also compared and calculated (Table 3).
(§5) Table 3: Kinetic parameters of recombinant DbExg1 and ScExg1 proteins on oNPG and pNPG substrates (4) Enzymatic Hydrolysis of Mogrosides

Substrate in series [5]: O=[N+]([O-])c1ccccc1O[C@@H]1O[C@H](CO)[C@@H](O)[C@H](O)[C@H]1O
The description is as above. The format is biochemical, Saccharomyces cerevisiae. Particulars: other: rScExg1; pNP/oNP release at 405 nm. The method, then: as §2, §3, §4, §5

Substrate in series [6]: O=[N+]([O-])c1ccccc1O[C@@H]1O[C@H](CO)[C@@H](O)[C@H](O)[C@H]1O
Nature of the series: purified protein, by the assay type. As to conditions: other: rDbExg1, substrate 10 mM, acetate buffer, pH 5, 60° C., pNP/oNP release at 405 nm.

Substrate in series [7]: O=[N+]([O-])c1ccc(O[C@@H]2O[C@H](CO)[C@@H](O)[C@H](O)[C@H]2O)cc1
Nature of the series: Enzyme kinetics of recombinant DbExg1 on oNPG and pNPG substrates (β-glucosidase activity). Particulars: other: rDbExg1, substrate 10 mM, acetate buffer, pH 5, 60° C., pNP/oNP release at 405 nm. The series is classed as biochemical, Dekkera bruxellensis.
Text: Exg1-like β-glucosidase from Dekkera bruxellensis (DbExg1) was cloned with the Gateway cloning system. Briefly, the coding region of DbExg1 was first amplified by PCR. The forward primer was
underline indicates gene coding region). Genomic DNA extracted from D. bruxellensis was used as the template. Yeast expression vectors (pYES-DEST52) were further introduced to generate galactose-inducible plasmids carrying the correct DbExg1 sequence. The yeast vectors were then amplified and transformed into Exg1-deleted S. cerevisiae (exg1Δ mutants) for the galactose-induced DbExg1 protein expression assay. DbExg1 gene was also integrated into (exg1Δ mutants) with a GPD promoter. For protein purification, the culture media was concentrated with a 30 kDa MWCO (molecular weight cutoff) ultrafiltration membrane (Vivaspin 20, GE Co., Taipei, Taiwan). The extracellular protein concentrates were purified by Ni^2+-affinity chromatography. Protein homogeneity in each fraction was assessed by SDS-PAGE and silver staining.
as §2, with “analysis. […]” for “analysis.”
as §1

Take `C[C@H](CC[C@@H](O[C@@H]1O[C@H](CO[C@@H]2O[C@H](CO)[C@@H](O)[C@H](O)[C@H]2O)[C@@H](O)[C@H](O)[C@H]1O[C@@H]1O[C@H](CO)[C@@H](O)[C@H](O)[C@H]1O)C(C)(C)O)[C@H]1CC[C@@]2(C)[C@@H]3CC=C4[C@@H](CC[C@H](O[C@@H]5O[C@H](CO[C@@H]6O[C@H](CO)[C@@H](O)[C@H](O)[C@H]6O)[C@@H](O)[C@H](O)[C@H]5O)C4(C)C)[C@]3(C)[C@H](O)C[C@]12C` [MG V, mogroside V]: the “times sweeter than 5% sucrose” value in series [1] is on record as 392 times.
Consider `C[C@H](CC[C@@H](O[C@@H]1O[C@H](CO[C@@H]2O[C@H](CO)[C@@H](O)[C@H](O)[C@H]2O)[C@@H](O)[C@H](O)[C@H]1O[C@@H]1O[C@H](CO)[C@@H](O)[C@H](O)[C@H]1O)C(C)(C)O)[C@H]1CC[C@@]2(C)[C@@H]3CC=C4[C@@H](CC[C@H](O[C@@H]5O[C@H](CO)[C@@H](O)[C@H](O)[C@H]5O)C4(C)C)[C@]3(C)[C@H](O)C[C@]12C` [SI, siamenoside I], for which, in series [1], the “times sweeter than 5% sucrose” value is on record as 563 times.
`C[C@H](CC[C@@H](O[C@@H]1O[C@H](CO)[C@@H](O)[C@H](O)[C@H]1O[C@@H]1O[C@H](CO)[C@@H](O)[C@H](O)[C@H]1O)C(C)(C)O)[C@H]1CC[C@@]2(C)[C@@H]3CC=C4[C@@H](CC[C@H](O[C@@H]5O[C@H](CO)[C@@H](O)[C@H](O)[C@H]5O)C4(C)C)[C@]3(C)[C@H](O)C[C@]12C` [MG IIIE, mogroside III E]: the “times sweeter than 5% sucrose” value in series [1] was “less sweet”.
Consider `C[C@H](CC[C@@H](O[C@@H]1O[C@H](CO)[C@@H](O)[C@H](O)[C@H]1O[C@@H]1O[C@H](CO)[C@@H](O)[C@H](O)[C@H]1O)C(C)(C)O)[C@H]1CC[C@@]2(C)[C@H]3CC=C4[C@@H](CC[C@H](O[C@@H]5O[C@H](CO[C@@H]6O[C@H](CO)[C@@H](O)[C@H](O)[C@H]6O)[C@@H](O)[C@H](O)[C@H]5O)C4(C)C)[C@]3(C)[C@H](O)C[C@]12C` [MG IV, mogroside IV], for which, in series [1], the “times sweeter than 5% sucrose” value was 465 times.
For the molecule `O=[N+]([O-])c1ccccc1O[C@@H]1O[C@H](CO)[C@@H](O)[C@H](O)[C@H]1O` [o NPG, o-nitrophenol β-D-glucoside], in series [2], the Kcat was determined as 0.458 ± 0.012 s⁻¹ and the Vmax worked out at 9.16 ± 0.247 µmol/min/mg.

B1: recombinant ScExg1 (rScExg1), Exg1p of Saccharomyces cerevisiae (Saccharomyces cerevisiae S288C) (protein)
chain: YYDYDHGSLGEPIRGVNIGGWLLLEPYITPSLFEAFRTNDDNDEGIPVDEYHFCQYLGKDLAKSRLQSHWSTFYQEQDFANIASQGFNLVRIPIGYWAFQTLDDDPYVSGLQESYLDQAIGWARNNSLKVWVDLHGAAGSQNGFDNSGLRDSYKFLEDSNLAVTTNVLNYILKKYSAEEYLDTVIGIELINEPLGPVLDMDKMKNDYLAPAYEYLRNNIKSDQVIIIHDAFQPYNYWDDFMTENDGYWGVTIDHHHYQVFASDQLERSIDEHIKVACEWGTGVLNESHWTVCGEFAAALTDCTKWLNSVGFGARYDGSWVNGDQTSSYIGSCANNDDIAYWSDERKENTRRYVEAQLDAFEMRGGWIIWCYKTESSLEWDAQRLMFNGLFPQPLTDRKYPNQCGTISN
As to B1, the optimum temperature in series [3] stood at 50 °C. In series [4], the Km is 865 ± 3 µM, the Vmax worked out at 11.7 µmol/min/mg, the kcat was determined as 0.587 ± 0.018 s⁻¹ and the kcat/Km turned out to be 679 ± 5 M⁻¹ s⁻¹. Further, the Km in series [5] is 840 ± 42 µM.

B2: recombinant DbExg1 (rDbExg1), Exg1-like β-glucosidase from Dekkera bruxellensis, C-terminal 6xHis (Brettanomyces bruxellensis) (protein)
chain: APIILKKRDWDYTKDKIHGVNIGGWLVLEPYITPSLFETFGDDAPVDEYHYTQQLGKEEASKRLQEHWANWITEKDFEYIANLGLNMVRIPIGYWAFELQDNDPYVQGQQAYLDKALGWAEKNGLKVWIDLHGVPGSQNGFDNSGLRDQIDWQTGSGNVDFTLNVLKEMIEKYSDSDYSDTIIGIELLNEPLGSSLNMDELKVFYSSGYELVRDQDASVPVIIQDAFQSDYYWDDFLNTEQDTNIYGVVVDHHHYQVFSTGELQRDMDTRIQTACNWGKQEGGEYHWNVCGEFSAALTDCAKWLNGLGRGARYDSSYGGGAYVGSCDDLYTYDEDYWNNSDVIKQYRQYVEAQMDAFENGKMGGWVFWCWKTESAVEWDFQRLAGLNVIPQPLDDRLYPNQCSF
For B2, in series [6], the Km came out at 781 ± 4 µM, the Vmax turned out to be 10.4 µmol/min/mg, the kcat stood at 0.518 s⁻¹ and the kcat/Km turned out to be 663 M⁻¹ s⁻¹. Further, in series [7], the Km worked out at 734 ± 2 µM, the Vmax turned out to be 9.27 µmol/min/mg, the kcat is 0.464 ± 0.006 s⁻¹ and the kcat/Km came out at 632 ± 7 M⁻¹ s⁻¹.
